Laboratory results taken from IntAct's records for PubMed 16698552.

B1: Eukaryotic translation initiation factor 4 gamma 1 (Homo sapiens), Q04637-8 (parent)
chain: MNKAPQSTGPPPAPSPGLPQPAFPPGQTAPVVFSTPQATQMNTPSQPRQHFYPSRAQPPSSAASRVQSAAPARPGPAAHVYPAGSQVMMIPSQISYPASQGAYYIPGQGRSTYVVPTQQYPVQPGAPGFYPGASPTEFGTYAGAYYPAQGVQQFPTGVAPTPVLMNQPPQIAPKRERKTIRIRDPNQGGKDITEEIMSGARTASTPTPPQTGGGLEPQANGETPQVAVIVRPDDRSQGAIIADRPGLPGPEHSPSESQPSSPSPTPSPSPVLEPGSEPNLAVLSIPGDTMTTIQMSVEESTPISRETGEPYRLSPEPTPLAEPILEVEVTLSKPVPESEFSSSPLQAPTPLASHTVEIHEPNGMVPSEDLEPEVESSPELAPPPACPSESPVPIAPTAQPEELLNGAPSPPAVDLSPVSEPEEQAKEVTASMAPPTIPSATPATAPSATSPAQEEEMEEEEEEEEGEAGEAGEAESEKGGEELLPPESTPIPANLSQNLEAAAATQVAVSVPKRRRKIKELNKKEAVGDLLDAFKEANPAVPEVENQPPAGSNPGPESEGSGVPPRPEEADETWDSKEDKIHNAENIQPGEQKYEYKSDQWKPLNLEEKKRYDREFLLGFQFIFASMQKPEGLPHISDVVLDKANKTPLRPLDPTRLQGINCGPDFTPSFANLGRTTLSTRGPPRGGPGGELPRGPQAGLGPRRSQQGPRKEPRKIIATVLMTEDIKLNKAEKAWKPSSKRTAADKDRGEEDADGSKTQDLFRRVRSILNKLTPQMFQQLMKQVTQLAIDTEERLKGVIDLIFEKAISEPNFSVAYANMCRCLMALKVPTTEKPTVTVNFRKLLLNRCQKEFEKDKDDDEVFEKKQKEMDEAATAEERGRLKEELEEARDIARRRSLGNIKFIGELFKLKMLTEAIMHDCVVKLLKNHDEESLECLCRLLTTIGKDLDFEKAKPRMDQYFNQMEKIIKEKKTSSRIRFMLQDVLDLRGSNWVPRRGDQGPKTIDQIHKEAEMEEHREHIKVQQLMAKGSDKRRGGPPGPPISRGLPLVDDGGWNTVPISKGSRPIDTSRLTKITKPGSIDSNNQLFAPGGRLSWGKGSSGGSGAKPSDAASEAARPATSTLNRFSALQQAVPTESTDNRRVVQRSSLSRERGEKAGDRGDRLERSERGGDRGDRLDRARTPATKRSFSKEVEERSRERPSQPEGLRKAASLTEDRDRGRDAVKREAALPPVSPLKAALSEEELEKKSKAIIEEYLHLNDMKEAVQCVQELASPSLLFIFVRHGVESTLERSAIAREHMGQLLHQLLCAGHLSTAQYYQGLYEILELAEDMEIDIPHVWLYLAELVTPILQEGGVPMGELFREITKPLRPLGKAASLLLEILGLLCKSMGPKKVGTLWREAGLSWKEFLPEGQDIGAFVAEQKVEYTLGEESEAPGQRALPSEELNRQLEKLLKEGSSNQRVFDWIEANLSEQQIVSNTLVRALMTAVCYSAIIFETPLRVDVAVLKARAKLLQKYLCDEQKELQALYALQALVVTLEQPPNLLRMFFDALYDEDVVKEDAFYSWESSKDPAEQQGKGVALKSVTAFFKWLREAEEESDHN

Variants of: B1
Details: with if4g1_human EIF4G1, Q04637

effect of a mutation on the interaction | Variant
disrupting interaction | I1278A;F1279A;V1280A
